Patent EP4667489A1 (Kyinno Biotechnology Co., Ltd., dated 2025)
Like-named read-outs stand apart in the source and are kept apart here.

T1: LAG3-His (ACRO, Cat No.: LA3-H5222) (UniProt P18627 23-450)
T1 construct: bought protein; not shown: His tag
T1 sequence (looked up): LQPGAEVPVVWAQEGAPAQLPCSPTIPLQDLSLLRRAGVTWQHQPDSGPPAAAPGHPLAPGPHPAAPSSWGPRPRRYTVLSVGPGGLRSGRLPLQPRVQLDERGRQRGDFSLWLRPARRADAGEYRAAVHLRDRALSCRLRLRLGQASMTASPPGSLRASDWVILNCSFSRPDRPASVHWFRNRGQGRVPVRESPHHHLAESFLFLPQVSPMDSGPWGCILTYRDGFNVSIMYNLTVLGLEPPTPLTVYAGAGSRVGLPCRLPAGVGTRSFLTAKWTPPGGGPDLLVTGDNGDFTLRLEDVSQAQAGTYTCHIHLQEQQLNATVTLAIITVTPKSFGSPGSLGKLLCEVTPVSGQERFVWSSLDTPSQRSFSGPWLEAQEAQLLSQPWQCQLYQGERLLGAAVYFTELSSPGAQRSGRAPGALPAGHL

T2: LAG3-hFc (fusion protein of the human LAG3 extracellular domain and human IgG1-Fc) (human, UniProt P18627 23-450)
T2 construct: extracellular domain; not shown: human IgG1-Fc, Genbank CAC20454.1
T2 sequence (looked up): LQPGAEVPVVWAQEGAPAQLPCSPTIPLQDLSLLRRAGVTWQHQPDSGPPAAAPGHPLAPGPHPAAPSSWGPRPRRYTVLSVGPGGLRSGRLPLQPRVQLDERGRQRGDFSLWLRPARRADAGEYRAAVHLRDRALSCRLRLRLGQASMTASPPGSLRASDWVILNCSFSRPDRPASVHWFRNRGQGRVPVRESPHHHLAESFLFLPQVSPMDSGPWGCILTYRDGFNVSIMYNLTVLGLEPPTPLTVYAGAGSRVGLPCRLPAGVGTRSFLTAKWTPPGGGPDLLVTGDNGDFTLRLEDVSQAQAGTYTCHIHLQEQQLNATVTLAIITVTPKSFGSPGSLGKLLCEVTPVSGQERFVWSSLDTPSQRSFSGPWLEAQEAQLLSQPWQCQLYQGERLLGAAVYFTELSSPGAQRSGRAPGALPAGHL

T3: human LAG3 expressed on 293T-LAG3 cells (human, UniProt P18627 23-525)
T3 construct: whole, on cells; 293T cells stably expressing human LAG3 (Kyinno KC-0214); also called LAG3-expressing cells
T3 sequence (looked up): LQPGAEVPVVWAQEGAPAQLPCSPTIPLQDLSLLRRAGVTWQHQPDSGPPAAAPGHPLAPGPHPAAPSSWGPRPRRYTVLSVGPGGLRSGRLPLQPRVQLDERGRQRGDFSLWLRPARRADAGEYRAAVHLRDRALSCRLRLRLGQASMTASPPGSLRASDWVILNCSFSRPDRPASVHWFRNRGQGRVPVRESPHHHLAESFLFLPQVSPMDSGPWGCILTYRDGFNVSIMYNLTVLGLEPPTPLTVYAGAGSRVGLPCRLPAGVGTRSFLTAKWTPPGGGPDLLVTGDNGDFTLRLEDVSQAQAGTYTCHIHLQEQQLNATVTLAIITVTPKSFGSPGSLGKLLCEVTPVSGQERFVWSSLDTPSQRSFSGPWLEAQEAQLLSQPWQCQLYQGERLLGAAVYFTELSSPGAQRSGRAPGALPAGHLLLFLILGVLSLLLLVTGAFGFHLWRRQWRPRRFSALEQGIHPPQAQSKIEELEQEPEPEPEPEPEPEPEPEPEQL


What was measured:
[1] = biological target: T1, LAG3-His (ACRO, Cat No.: LA3-H5222); test: BLI (ForteBio Octet), LAG3-His as mobile phase
[2] = biological target: T2, LAG3-hFc (fusion protein of the human …); test: flow cytometry, blocking of LAG3 fusion protein binding to Daudi cells (procedure of Example 5)
[3] = biological target: T4, PD1-hFc (fusion protein of the human PD1 extracellular domain and human IgG1-Fc) (human, UniProt Q15116 25-170); test: flow cytometry, blocking of PD1 fusion protein binding to 293T-PDL1 cells (procedure of Example 8)
T4 construct: extracellular domain; also called human PD1-hFc; not shown: human IgG1-Fc, Genbank CAC20454.1

[4] = biological target: T5, PD1-His (Kyinno, Cat No.: KP-1023) (UniProt Q15116 25-167, limits assumed); test: BLI (ForteBio Octet), PD1-His as mobile phase
T5 construct: bought protein; not shown: His tag

[5] = biological target: T3, human LAG3 expressed on 293T-LAG3 cells; test: flow cytometry on 293T-LAG3 cells
[6] = biological target: T6, human PD1 expressed on 293T-PD1 cells (human, UniProt Q15116 25-288); test: flow cytometry on 293T-PD1 cells
T6 construct: whole, on cells; 293T cells stably expressing human PD1 (Kyinno KC-0204); also called PD1-expressing cells; Jurkat NFAT-PD1-luc cells

[7] = biological target: T3, human LAG3 expressed on 293T-LAG3 cells; test: flow cytometry on 293T-LAG3 cells; remark: listed apart in the source
[8] = biological target: T4, PD1-hFc (fusion protein of the human …); test: flow cytometry, blocking of PD1 fusion protein binding to 293T-PDL1 cells (procedure of Example 8); remark: listed apart in the source
[9] = biological target: T6, human PD1 expressed on 293T-PD1 cells; test: flow cytometry on 293T-PD1 cells; remark: listed apart in the source
[10] = biological target: T2, LAG3-hFc (fusion protein of the human …); test: flow cytometry, blocking of LAG3 fusion protein binding to Daudi cells (procedure of Example 5); remark: listed apart in the source
[11] = biological target: T1, LAG3-His (ACRO, Cat No.: LA3-H5222); test: BLI (ForteBio Octet), LAG3-His as mobile phase; remark: listed apart in the source
[12] = biological target: T5, PD1-His (Kyinno, Cat No.: KP-1023); test: BLI (ForteBio Octet), PD1-His as mobile phase; remark: listed apart in the source

T4 sequence (Q15116 25-170): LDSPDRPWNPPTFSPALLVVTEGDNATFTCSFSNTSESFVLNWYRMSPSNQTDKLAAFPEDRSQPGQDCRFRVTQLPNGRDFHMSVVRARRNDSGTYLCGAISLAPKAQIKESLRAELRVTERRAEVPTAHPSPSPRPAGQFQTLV
T6 sequence (Q15116 25-288): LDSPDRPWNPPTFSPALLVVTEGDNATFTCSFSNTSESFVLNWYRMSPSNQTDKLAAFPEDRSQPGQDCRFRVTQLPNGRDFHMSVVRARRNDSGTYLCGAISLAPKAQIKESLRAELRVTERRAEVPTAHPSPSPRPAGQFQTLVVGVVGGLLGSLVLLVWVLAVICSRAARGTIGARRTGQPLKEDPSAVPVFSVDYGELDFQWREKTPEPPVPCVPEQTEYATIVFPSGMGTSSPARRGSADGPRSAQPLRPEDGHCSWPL
T5 sequence (Q15116 25-167 limits assumed): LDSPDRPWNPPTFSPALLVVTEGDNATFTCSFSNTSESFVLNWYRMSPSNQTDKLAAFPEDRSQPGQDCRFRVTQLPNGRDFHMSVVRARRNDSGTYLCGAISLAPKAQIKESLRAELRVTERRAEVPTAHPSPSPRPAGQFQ

Kd [1] [nM]	koff [1] [s⁻¹]	kon [1] [M⁻¹ s⁻¹]	IC50 [2] [µg/mL]	IC50 [3] [µg/mL]	Kd [4] [nM]	koff [4] [s⁻¹]	kon [4] [M⁻¹ s⁻¹]	EC50 [5] [µg/mL]	EC50 [6] [µg/mL]	EC50 [7] [µg/mL]	IC50 [8] [µg/mL]	EC50 [9] [µg/mL]	IC50 [10] [µg/mL]	Kd [11] [nM]	koff [11] [s⁻¹]	kon [11] [M⁻¹ s⁻¹]	Kd [12] [nM]	koff [12] [s⁻¹]	kon [12] [M⁻¹ s⁻¹]	Binder
0.168	0.000195	1.16e+06	0.879	0.435	4.73	0.00105	222000	0.228	0.651	–	–	–	–	–	–	–	–	–	–	KA-1835 H28G27V4×H107D1210-hIgG4M (bispecific antibody, PD1×LAG3 bispecific; first heavy chain targets PD1 (hIgG4 Hole), second targets LAG3 (hIgG4 Knob); common light chain 1) heavy 1: QVQLVESGGGLVKPGGSLRLSCAASGFTFSDYGMHWIRQAPGKGLEWVAYISSGSYTIYYADTVRDRFTISRDSAKNSLYLQMNSLRAEDTAVYYCVRRGPGYFGSTALDYWGQGTTVTVSSASTKGPSVFPLAPCSRSTSESTAALGCLVKDYFPEPVTVSWNSGALTSGVHTFPAVLQSSGLYSLSSVVTVPSSSLGTKTYTCNVDHKPSNTKVDKRVESKYGPPCPPCPAPEFLGGPSVFLFPPKPKDTLMISRTPEVTCVVVDVSQEDPEVQFNWYVDGVEVHNAKTKPREEQFNSTYRVVSVLTVLHQDWLNGKEYKCKVSNKGLPSSIEKTISKAKGQPREPQVCTLPPSQEEMTKNQVSLSCAVKGFYPSDIAVEWESNGQPENNYKTTPPVLDSDGSFFLVSRLTVDKSRWQEGNVFSCSVMHEALHNHYTQKSLSLSLG heavy 2: QVQLQESGPGLVKPSETLSLTCTVSGYSFTSGYYWNWIRQPPGKGLEWIGYVSYFGTANYNPALKNRVTISRDTSKNQFSLKLSSVTAADTAVYYCARGEEWDWSFDVWGQGTTVTVSSASTKGPSVFPLAPCSRSTSESTAALGCLVKDYFPEPVTVSWNSGALTSGVHTFPAVLQSSGLYSLSSVVTVPSSSLGTKTYTCNVDHKPSNTKVDKRVESKYGPPCPPCPAPEFLGGPSVFLFPPKPKDTLMISRTPEVTCVVVDVSQEDPEVQFNWYVDGVEVHNAKTKPREEQFNSTYRVVSVLTVLHQDWLNGKEYKCKVSNKGLPSSIEKTISKAKGQPREPQVYTLPPCQEEMTKNQVSLWCLVKGFYPSDIAVEWESNGQPENNYKTTPPVLDSDGSFFLYSRLTVDKSRWQEGNVFSCSVMHEALHNHYTQKSLSLSLG light: DIQITQSPSSLSASVGDRVTITCSATSGVSYMHWYQQKPGKAPKRLIYDTSRLASGVPSRFSGSGSGTDYTLTISSLQPEDFATYYCQQWSSNPPYTFGQGTRLEIKRTVAAPSVFIFPPSDEQLKSGTASVVCLLNNFYPREAKVQWKVDNALQSGNSQESVTEQDSKDSTYSLSSTLTLSKADYEKHKVYACEVTHQGLSSPVTKSFNRGEC
0.18	0.000266	1.48e+06	0.972	0.302	6.55	0.00116	178000	0.557	0.33	–	–	–	–	–	–	–	–	–	–	KA-1836 H107D1210×H28G27V4-hIgG4M (bispecific antibody, PD1×LAG3 bispecific; first heavy chain targets PD1 (hIgG4 Knob), second targets LAG3 (hIgG4 Hole); common light chain 1) heavy 1: QVQLVESGGGLVKPGGSLRLSCAASGFTFSDYGMHWIRQAPGKGLEWVAYISSGSYTIYYADTVRDRFTISRDSAKNSLYLQMNSLRAEDTAVYYCVRRGPGYFGSTALDYWGQGTTVTVSSASTKGPSVFPLAPCSRSTSESTAALGCLVKDYFPEPVTVSWNSGALTSGVHTFPAVLQSSGLYSLSSVVTVPSSSLGTKTYTCNVDHKPSNTKVDKRVESKYGPPCPPCPAPEFLGGPSVFLFPPKPKDTLMISRTPEVTCVVVDVSQEDPEVQFNWYVDGVEVHNAKTKPREEQFNSTYRVVSVLTVLHQDWLNGKEYKCKVSNKGLPSSIEKTISKAKGQPREPQVYTLPPCQEEMTKNQVSLWCLVKGFYPSDIAVEWESNGQPENNYKTTPPVLDSDGSFFLYSRLTVDKSRWQEGNVFSCSVMHEALHNHYTQKSLSLSLG heavy 2: QVQLQESGPGLVKPSETLSLTCTVSGYSFTSGYYWNWIRQPPGKGLEWIGYVSYFGTANYNPALKNRVTISRDTSKNQFSLKLSSVTAADTAVYYCARGEEWDWSFDVWGQGTTVTVSSASTKGPSVFPLAPCSRSTSESTAALGCLVKDYFPEPVTVSWNSGALTSGVHTFPAVLQSSGLYSLSSVVTVPSSSLGTKTYTCNVDHKPSNTKVDKRVESKYGPPCPPCPAPEFLGGPSVFLFPPKPKDTLMISRTPEVTCVVVDVSQEDPEVQFNWYVDGVEVHNAKTKPREEQFNSTYRVVSVLTVLHQDWLNGKEYKCKVSNKGLPSSIEKTISKAKGQPREPQVCTLPPSQEEMTKNQVSLSCAVKGFYPSDIAVEWESNGQPENNYKTTPPVLDSDGSFFLVSRLTVDKSRWQEGNVFSCSVMHEALHNHYTQKSLSLSLG light: DIQITQSPSSLSASVGDRVTITCSATSGVSYMHWYQQKPGKAPKRLIYDTSRLASGVPSRFSGSGSGTDYTLTISSLQPEDFATYYCQQWSSNPPYTFGQGTRLEIKRTVAAPSVFIFPPSDEQLKSGTASVVCLLNNFYPREAKVQWKVDNALQSGNSQESVTEQDSKDSTYSLSSTLTLSKADYEKHKVYACEVTHQGLSSPVTKSFNRGEC
–	–	–	–	–	–	–	–	–	–	0.0931	0.232	0.3	0.88	0.175	0.000111	633000	6.87	0.00255	372000	KA-1793 H28G27V4×H107D1210-hIgG4M (bispecific antibody, PD1×LAG3 bispecific; first heavy chain targets PD1 (hIgG4 Hole), second targets LAG3 (hIgG4 Knob); common light chain 2) heavy 1: QVQLVESGGGLVKPGGSLRLSCAASGFTFSDYGMHWIRQAPGKGLEWVAYISSGSYTIYYADTVRDRFTISRDSAKNSLYLQMNSLRAEDTAVYYCVRRGPGYFGSTALDYWGQGTTVTVSSASTKGPSVFPLAPCSRSTSESTAALGCLVKDYFPEPVTVSWNSGALTSGVHTFPAVLQSSGLYSLSSVVTVPSSSLGTKTYTCNVDHKPSNTKVDKRVESKYGPPCPPCPAPEFLGGPSVFLFPPKPKDTLMISRTPEVTCVVVDVSQEDPEVQFNWYVDGVEVHNAKTKPREEQFNSTYRVVSVLTVLHQDWLNGKEYKCKVSNKGLPSSIEKTISKAKGQPREPQVCTLPPSQEEMTKNQVSLSCAVKGFYPSDIAVEWESNGQPENNYKTTPPVLDSDGSFFLVSRLTVDKSRWQEGNVFSCSVMHEALHNHYTQKSLSLSLG heavy 2: QVQLQESGPGLVKPSETLSLTCTVSGYSFTSGYYWNWIRQPPGKGLEWIGYVSYFGTANYNPALKNRVTISRDTSKNQFSLKLSSVTAADTAVYYCARGEEWDWSFDVWGQGTTVTVSSASTKGPSVFPLAPCSRSTSESTAALGCLVKDYFPEPVTVSWNSGALTSGVHTFPAVLQSSGLYSLSSVVTVPSSSLGTKTYTCNVDHKPSNTKVDKRVESKYGPPCPPCPAPEFLGGPSVFLFPPKPKDTLMISRTPEVTCVVVDVSQEDPEVQFNWYVDGVEVHNAKTKPREEQFNSTYRVVSVLTVLHQDWLNGKEYKCKVSNKGLPSSIEKTISKAKGQPREPQVYTLPPCQEEMTKNQVSLWCLVKGFYPSDIAVEWESNGQPENNYKTTPPVLDSDGSFFLYSRLTVDKSRWQEGNVFSCSVMHEALHNHYTQKSLSLSLG light: DIQITQSPSSLSASVGDRVTITCSASSSVSYMHWYQQKPGKAPKRLIYDTSKLASGVPSRFSGSGSGTDYTLTISSLQPEDFATYYCQQWSSNPPYTFGQGTRLEIKRTVAAPSVFIFPPSDEQLKSGTASVVCLLNNFYPREAKVQWKVDNALQSGNSQESVTEQDSKDSTYSLSSTLTLSKADYEKHKVYACEVTHQGLSSPVTKSFNRGEC
